Laboratory results: US20230331827A1, “POTASSIUM CHANNEL INHIBITORS” (priority 2017, published 2023)

T1: human ASIC1a (human) (UniProt P78348)
T1 sequence (looked up): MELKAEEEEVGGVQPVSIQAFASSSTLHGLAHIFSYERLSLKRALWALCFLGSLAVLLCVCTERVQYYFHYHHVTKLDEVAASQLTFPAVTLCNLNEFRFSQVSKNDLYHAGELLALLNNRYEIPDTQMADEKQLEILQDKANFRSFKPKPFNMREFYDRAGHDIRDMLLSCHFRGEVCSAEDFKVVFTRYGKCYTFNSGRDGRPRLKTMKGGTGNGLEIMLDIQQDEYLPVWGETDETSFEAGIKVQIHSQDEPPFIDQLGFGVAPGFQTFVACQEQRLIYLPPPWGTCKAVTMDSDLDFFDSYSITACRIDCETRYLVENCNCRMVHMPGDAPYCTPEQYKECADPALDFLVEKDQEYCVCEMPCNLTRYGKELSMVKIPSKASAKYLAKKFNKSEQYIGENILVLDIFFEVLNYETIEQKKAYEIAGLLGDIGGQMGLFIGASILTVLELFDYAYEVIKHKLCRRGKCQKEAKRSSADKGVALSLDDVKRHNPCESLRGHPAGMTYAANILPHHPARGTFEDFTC

B1: KB_A07 IgG1 (EETI-II fusion) (antibody, V domains shown)
VH: EVQLVESGGGLVRPGGSLRLSCAASGFTFSSYAMSWVRQAPGKGLEWVSAISGSGGSTYYADSVKGRFTISRDNTKNSLYLQMTSLRADDTAFYYCVKDFGPGYGTGWFDYWGPGTLVTVSS
VL: YLNWYQQKPGKAPKLLIYAAGVCPRILMRCKQDSDCLAGCVCGPNGFCGSRSGVPSRFSGSGSGTDFTLTISSLQPEDFATYYCQQGASPPYTFGQGTKVEIKR
B2: KB_A12 scFv-Fc displayed on HEK293 cells (Fc fusion)
VH: B1 VH
VL: QSVLTQPPSVSEAPRQRVTITCSGSSSNIGNNAVNWYQQLPGKAPKLLIYAAGRCPRILMRCKQDSDCLAGCVCGPNGFCGANSGVSDRFSAAKSGTSASLAINGLRSEDEADYYCAAWDDSLNGYVFGTGTKLTVLGQP
B3: KB_A07 scFv-Fc displayed on HEK293 cells (Fc fusion)
VH: B1 VH
VL: DIQMTQSPSSLSASVGDRVTITCRASQSISSYLNWYQQKPGKAPKLLIYAAGVCPRILMRCKQDSDCLAGCVCGPNGFCGSRSGVPSRFSGSGSGTDFTLTISSLQPEDFATYYCQQGASPPYTFGQGTKVEIKRT
B4: KB_A01 GlyAla mutant (scFv on phage) (scFv, V domains shown)
VH: B1 VH
VL: YLNWYQQKPGKAPKLLIYAAEVCGAILMRCKQDSDCLAGCVCGPNGFCGGTSGVPSRFSGSRSGTEFTLTISSLQPEDFATYYCQKVDDYPLTFGGGTKVEIKR
B5: KB_A11 GlyAla mutant (scFv on phage) (scFv, V domains shown)
VH: B1 VH
VL: YLNWYQQKPGKAPKLLIYAAEICGAILMRCKQDSDCLAGCVCGPNGFCGPSSGIPARFSGSGYGTDFTLTINNIESEDAAYYFCLQHDNFPYTFGQGTKVEIKR
B6: KB_A12 IgG1 (EETI-II fusion) (antibody, V domains shown)
VH: B1 VH
VL: AVNWYQQLPGKAPKLLIYAAGRCPRILMRCKQDSDCLAGCVCGPNGFCGANSGVSDRFSAAKSGTSASLAINGLRSEDEADYYCAAWDDSLNGYVFGTGTKLTVLG

Assays:
human ASIC1a (human) = target: T1, human ASIC1a (human); experiment: cell-based or functional assay
human Kv1.1 (human) = human Kv1.1 (human) (UniProt Q09470); experiment: cell-based or functional assay
Chain of human Kv1.1 (human) (Q09470 whole entry): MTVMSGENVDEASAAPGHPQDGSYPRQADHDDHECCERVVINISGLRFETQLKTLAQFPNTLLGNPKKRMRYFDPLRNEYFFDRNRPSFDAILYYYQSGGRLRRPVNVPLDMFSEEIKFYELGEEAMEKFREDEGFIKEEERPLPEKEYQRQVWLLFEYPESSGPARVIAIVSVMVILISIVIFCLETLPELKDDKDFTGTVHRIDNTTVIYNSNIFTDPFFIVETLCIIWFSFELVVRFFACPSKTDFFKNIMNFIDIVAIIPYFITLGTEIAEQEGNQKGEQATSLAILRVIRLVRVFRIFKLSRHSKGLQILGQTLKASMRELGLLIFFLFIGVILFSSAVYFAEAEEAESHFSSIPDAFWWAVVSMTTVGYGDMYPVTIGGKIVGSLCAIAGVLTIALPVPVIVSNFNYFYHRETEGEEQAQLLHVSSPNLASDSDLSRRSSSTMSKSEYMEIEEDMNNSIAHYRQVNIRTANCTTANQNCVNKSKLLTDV

human Kv1.3 (human) = human Kv1.3 (human) (UniProt P22001); experiment: cell-based or functional assay
Chain of human Kv1.3 (human) (P22001 whole entry): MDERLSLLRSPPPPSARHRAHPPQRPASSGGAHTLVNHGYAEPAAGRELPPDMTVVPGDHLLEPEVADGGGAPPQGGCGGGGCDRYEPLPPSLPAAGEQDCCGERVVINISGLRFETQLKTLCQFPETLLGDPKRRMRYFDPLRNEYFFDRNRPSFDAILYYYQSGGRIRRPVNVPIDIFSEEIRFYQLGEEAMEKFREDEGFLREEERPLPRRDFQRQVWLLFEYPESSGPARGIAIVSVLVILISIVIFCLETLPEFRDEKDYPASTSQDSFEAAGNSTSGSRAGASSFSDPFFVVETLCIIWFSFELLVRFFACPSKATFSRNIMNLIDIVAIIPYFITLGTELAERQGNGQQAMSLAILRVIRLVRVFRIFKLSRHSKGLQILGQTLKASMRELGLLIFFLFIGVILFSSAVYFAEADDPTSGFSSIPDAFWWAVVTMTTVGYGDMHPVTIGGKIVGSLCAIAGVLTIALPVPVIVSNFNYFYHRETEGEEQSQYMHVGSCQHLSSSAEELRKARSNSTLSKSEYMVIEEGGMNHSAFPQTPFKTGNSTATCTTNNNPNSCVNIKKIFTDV

trypsin [1] = experiment: flow cytometry, biotinylated trypsin/streptavidin-APC
trypsin [2] = experiment: flow cytometry of HEK293 cells displaying the scFv-Fc, 15 days post transfection after blasticidin selection; untransfected cells (panel C): Q2 0.043
trypsin [3] = experiment: phage TRF, GlyAla mutant against parent clone

Binder | IC50, channel current, QPatch patch clamp (human Kv1.1 (human)) | IC50, channel current, QPatch patch clamp (human Kv1.3 (human)) | IC50, huKv1.3 current, QPatch patch clamp (human Kv1.3 (human)) | % of transfected HEK293 cells dual stained for Fc and trypsin (trypsin [1]) | Q2, share of cells stained by both anti-Fc-PE (FL2) and biotinylated trypsin/streptavidin-APC (FL4) (trypsin [2]) | % reduction in binding signal (trypsin [3]) | further results
B1 | > 10 µM | > 10 µM | > 10 µM | – | – | – | % ASIC1a current remaining at 6 µM, QPatch (human ASIC1a (human)): 70.9%
B2 | – | – | – | 11% | 11.2% | – | –
B3 | – | – | – | 34% | 33.8% | – | –
B4 | – | – | – | – | – | 93% | –
B5 | – | – | – | – | – | 100% | –
B6 | > 10 µM | > 10 µM | > 10 µM | – | – | – | % ASIC1a current remaining at 3.3 µM, QPatch (human ASIC1a (human)): 67.4%
